Blank lines part the entries; values can stand above or below the molecule they belong to. No end group written: not given here.
Tests used:
NPR-C = target: T1, NPR-C (Homo sapiens, UniProt P17342); test: Competition of PLAP-Ostn binding on NPR-C over-expressing cells; conditions: ~30 nM PLAP-Ostn, NPR-C transfected cells; read-out: concentration competing off 50% of the binding of PLAP-mOstn
T1 construct: expressed in transfected cells; host or cells: HEK293, transient, pCDNA1.1 (CMV promoter)
T1 sequence (P17342 27-541): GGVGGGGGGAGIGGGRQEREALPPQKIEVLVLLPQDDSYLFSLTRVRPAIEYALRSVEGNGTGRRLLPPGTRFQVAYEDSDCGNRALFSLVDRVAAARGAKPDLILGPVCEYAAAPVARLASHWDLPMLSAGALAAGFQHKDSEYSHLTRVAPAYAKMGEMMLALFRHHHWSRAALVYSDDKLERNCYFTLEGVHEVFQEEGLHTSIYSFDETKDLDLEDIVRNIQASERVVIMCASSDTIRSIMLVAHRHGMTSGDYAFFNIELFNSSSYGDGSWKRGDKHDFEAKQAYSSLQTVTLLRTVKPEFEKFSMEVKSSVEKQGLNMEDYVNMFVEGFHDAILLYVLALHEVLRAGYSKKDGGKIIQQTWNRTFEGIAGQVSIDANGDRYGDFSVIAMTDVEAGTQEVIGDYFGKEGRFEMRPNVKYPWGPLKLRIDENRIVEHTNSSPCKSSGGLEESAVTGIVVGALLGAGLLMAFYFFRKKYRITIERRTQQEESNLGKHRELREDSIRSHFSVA
Excerpt: (§1) The expression plasmid for rat GC-A containing the entire coding sequence cloned between the NheI-KpnI sites of CMV-driven pBK plasmid (Stratagene, La Jolla, Calif.) was kindly provided by Dr. A. De Léan (Département de Pharmacologie, Université de Montréal). The human NPR-C and GC-B coding sequences were amplified by RT-PCR from human embryonic kidney polyA RNA (Clontech, Palo Alto, Calif.) with the following primer pairs: NPR-C-5′-[…]-3′(forward) (SEQ ID NO: 74) and 5′-[…]-3′ (SEQ ID NO: 75) (reverse); GC-B-5′-[…]-3′ (SEQ ID NO: 76) (forward) and 5′-[…]-3′ (SEQ ID NO: 77) (reverse). The resulting PCR products were then cloned downstream of the CMV-promoter into the pCDNA1.1 plasmid (Invitrogen, Burlington, ON, Canada). All constructs were validated by DNA sequencing.

human GC-B = target: T2, human GC-B (Homo sapiens, UniProt P20594); test: PLAP-Ostn binding to GC-B transfected HEK293 cells; conditions: cells overexpressing GC-B
T2 construct: expressed in transfected cells; host or cells: HEK293, transient, pCDNA1.1 (CMV promoter)
T2 sequence (P20594 23-1047): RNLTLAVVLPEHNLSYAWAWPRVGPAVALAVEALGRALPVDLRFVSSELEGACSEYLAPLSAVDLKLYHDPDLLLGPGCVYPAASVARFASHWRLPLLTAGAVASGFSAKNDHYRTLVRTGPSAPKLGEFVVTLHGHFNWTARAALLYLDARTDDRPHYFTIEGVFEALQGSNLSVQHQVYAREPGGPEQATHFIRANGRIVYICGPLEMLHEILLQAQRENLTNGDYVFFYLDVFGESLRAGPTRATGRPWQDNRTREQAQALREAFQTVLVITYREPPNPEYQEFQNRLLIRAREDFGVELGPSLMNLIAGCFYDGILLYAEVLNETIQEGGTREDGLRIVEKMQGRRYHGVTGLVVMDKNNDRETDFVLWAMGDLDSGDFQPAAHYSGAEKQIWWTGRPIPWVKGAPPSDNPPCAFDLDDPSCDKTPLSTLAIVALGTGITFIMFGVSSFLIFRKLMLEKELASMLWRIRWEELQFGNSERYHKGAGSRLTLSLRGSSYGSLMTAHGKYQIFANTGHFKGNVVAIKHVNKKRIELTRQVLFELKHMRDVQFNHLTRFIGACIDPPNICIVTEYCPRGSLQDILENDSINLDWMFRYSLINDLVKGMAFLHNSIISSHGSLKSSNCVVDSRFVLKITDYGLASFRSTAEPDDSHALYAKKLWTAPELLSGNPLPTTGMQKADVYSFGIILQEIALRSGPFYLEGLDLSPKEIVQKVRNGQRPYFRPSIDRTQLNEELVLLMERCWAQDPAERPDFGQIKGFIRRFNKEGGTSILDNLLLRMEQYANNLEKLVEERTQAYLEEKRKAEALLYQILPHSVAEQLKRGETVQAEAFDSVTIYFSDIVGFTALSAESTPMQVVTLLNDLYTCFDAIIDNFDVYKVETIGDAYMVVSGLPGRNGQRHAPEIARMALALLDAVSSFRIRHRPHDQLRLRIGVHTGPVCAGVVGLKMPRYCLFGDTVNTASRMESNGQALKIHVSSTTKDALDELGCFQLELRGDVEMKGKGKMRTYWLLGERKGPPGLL
Excerpt: as §1
(§2) To analyze the potential binding of Ostn to natriuretic receptors, a fusion protein (PLAP-Ostn) (FIG. 6) was generated as described above. This fusion protein comprised an N-terminal secreted placental alkaline phosphatase (PLAP) moiety linked to mature mouse Ostn (residues 29-130) (SEQ ID NO: 62). Conditioned media containing PLAP-mOstn was used to assess Ostn binding on transiently transfected cells.
(§3) Expression vectors for the coding sequence of GC-A, GC-B and NPR-C were constructed, transfected into human embryonic kidney (HEK) 293 cells and the cells incubated with either 37 nM PLAP or the PLAP-Ostn fusion. […]

rat GC-A = target: T3, rat GC-A (Rattus norvegicus, UniProt P18910); test: PLAP-Ostn binding to GC-A transfected HEK293 cells; conditions: cells overexpressing GC-A (not shown)
T3 construct: expressed in transfected cells; host or cells: HEK293, transient, CMV-driven pBK plasmid (gift of Dr. A. De Léan)
T3 sequence (P18910 29-1057): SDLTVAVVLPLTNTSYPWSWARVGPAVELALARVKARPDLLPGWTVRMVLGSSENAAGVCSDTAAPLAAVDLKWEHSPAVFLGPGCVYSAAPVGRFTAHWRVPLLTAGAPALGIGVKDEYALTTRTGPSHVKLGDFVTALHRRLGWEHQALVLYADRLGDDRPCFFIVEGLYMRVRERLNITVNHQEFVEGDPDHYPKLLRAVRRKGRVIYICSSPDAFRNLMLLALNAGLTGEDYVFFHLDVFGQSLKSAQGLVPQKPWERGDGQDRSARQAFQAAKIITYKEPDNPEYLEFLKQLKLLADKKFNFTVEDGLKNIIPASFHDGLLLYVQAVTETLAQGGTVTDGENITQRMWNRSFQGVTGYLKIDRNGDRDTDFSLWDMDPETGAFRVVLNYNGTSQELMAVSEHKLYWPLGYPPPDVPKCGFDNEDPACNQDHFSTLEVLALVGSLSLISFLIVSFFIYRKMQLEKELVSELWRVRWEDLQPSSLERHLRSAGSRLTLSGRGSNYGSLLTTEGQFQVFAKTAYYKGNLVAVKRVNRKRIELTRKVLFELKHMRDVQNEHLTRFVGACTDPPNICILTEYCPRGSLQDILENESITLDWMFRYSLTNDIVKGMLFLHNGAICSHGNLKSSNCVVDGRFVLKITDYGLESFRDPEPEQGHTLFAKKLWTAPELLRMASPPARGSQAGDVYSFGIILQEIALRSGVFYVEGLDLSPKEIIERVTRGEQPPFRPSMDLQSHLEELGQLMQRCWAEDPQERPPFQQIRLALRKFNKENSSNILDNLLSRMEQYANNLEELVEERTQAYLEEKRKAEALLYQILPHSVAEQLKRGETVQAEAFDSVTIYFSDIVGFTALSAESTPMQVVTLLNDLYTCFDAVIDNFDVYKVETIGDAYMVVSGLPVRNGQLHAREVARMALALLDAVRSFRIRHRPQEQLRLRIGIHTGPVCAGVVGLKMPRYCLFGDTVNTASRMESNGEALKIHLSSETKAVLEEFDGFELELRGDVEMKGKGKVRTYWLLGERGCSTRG
Excerpt: as §1, §2, §3

IC50 (NPR-C): 1 to 10 nM
Molecule: YDHSKKRFGIPMDRIGRNRLSNSR-NH2 [Ostn[107-129]]

specific binding (human GC-B): No specific binding
specific binding (rat GC-A): No specific binding
B1: PLAP-mOstn: fusion protein: N-terminal secreted placental alkaline phosphatase moiety linked to mature mouse Ostn residues 29-130 (SEQ ID NO: 70) (protein)
chain: DAAQPARRARRTYEAYVRSSGIIPVEEENPDFWNREAAEALGAAKKLQPAQTAAKNLIIFLGDGMGVSTVTAARILKGQKKDKLGPEIPLAMDRFPYVALSKTYNVDKHVPDSGATATAYLCGVKGNFQTIGLSAAARFNQCNTTRGNEVISVMNRAKKAGKSVGVVTTTRVQHASPAGTYAHTVNRNWYSDADVPASARQEGCQDIATQLISNMDIDVILGGGRKYMFPMGTPDPEYPDDYSQGGTRLDGKNLVQEWLAKRQGARYVWNRTELMQASLDPSVTHLMGLFEPGDMKYEIHRDSTLDPSLMEMTEAALRLLSRNPRGFFLFVEGGRIDHGHHESRAYRALTETIMFDDAIERAGQLTSEEDTLSLVTADHSHVFSFGGYPLRGSSIFGLAPGKARDRKAYTVLLYGNGPGYVLKDGARPDVTESESGSPEYRQQSAVPLDEETHAGEDVAVFARGPQAHLVHGVQEQTFIAHVMAFAACLEPYTACDLAPPAGTTDAAHPGYLDLASQEFGTASLQSPPTAREEKSATELSAKLLRLDDLVSLENDVFETKKKRSFSGFGSPLDRLSAGSVEHRGKQRKAVDHSKKRFGIPMDRIGRNRLSSSRG

From patent US7470668B2, “Method of use of specific natriuretic peptide receptor c ligands, transgenic non-human mammals expressing specific natriuretic peptide receptor c antagonists and cells thereof” (Enobia Pharma Inc., priority 2005, dated 2008)
